# ± gives the uncertainty stated by the source.
# Experiment: self-splicing fitness, log relative to wild type (ln ratio); higher = more splicing; Tetrahymena group I intron in knt gene, E. coli kanamycin selection, DiMSum; sequences stand for … in CUCUCU…GGAGGGAAAAGUUAUCAGGCAUGCACCUGGUAGCUAGUCUUUAAACCAAUAGAUUGCAUCGGUUUAAAAGGCAAGACCGUCAAAUUGCGGGAAAGGGGUCAACAGCCGUUCAGUACCAAGUCUCAGGGGAAACUUUGAGAUGGCCUUGCAAAGGGUAUGGUAAUAAGCUGACGGACAUGGUCCUAACCACGCAGCCAAGUCCUAAGUCAACAGAUCUUCUGUUGAUAUGGAUGCAGUUCACAGACUAAAUGUCGGUCGGGGAAGAUGUAUUCUUCUCAUAAGAUAUAGUCGGACCUCUCCUUAAUGGGAGCUAGCGGAUGAAGUGAUGCAACACUGGAGCCGCUGGGAACUAAUUUGUAUGCGAAAGUAUAUUGAUUAGUUUUGGAGUACUCGUGGUCG
# Summary of the method: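 A randomised library covering all eight P1ex-region intron nucleotides was built with the intron in the knt kanamycin-resistance gene on pET-22b(+) and held in E. coli BL21(DE3). Cells were grown overnight at 37°C or 30°C on LB agar, with or without 25 μg/mL kanamycin, plus 100 μg/mL carbenicillin, 50 μM IPTG and 0.2% rhamnose, and pooled colonies were amplicon-sequenced on an Illumina HiSeq 2500. DiMSum fitness is the error-weighted combination of wild-type-normalised replicate fold changes, kanamycin versus none.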
Sequence,self-splicing fitness (ln) (30 °C),self-splicing fitness (ln) (37 °C)
GUUGAGCAAUAUUACGUCUG,-2.34 ± 0.44,-2.04 ± 0.4
GUACAGCAAUAUUACGUCUU,-0.533 ± 0.079,0.628 ± 0.092
UUGGAGCAAUAUUACGGCAA,-0.805 ± 0.23,-0.671 ± 0.32
UAUCAGCAAUAUUACGAAUA,-0.934 ± 0.18,-0.486 ± 0.11
CGCGAGCAAUAUUACGGUGG,-2.1 ± 0.1,-1.43 ± 0.13
GUGUAGCAAUAUUACGAGUU,-2.8 ± 0.15,-1.39 ± 0.11
UGUCAGCAAUAUUACGUUCA,-0.292 ± 0.1,-0.052 ± 0.14
AACGAGCAAUAUUACGGACU,-1.88 ± 0.13,-0.603 ± 0.21
UCCAAGCAAUAUUACGAUAC,-3.99 ± 0.42,-1.11 ± 0.3
GAACAGCAAUAUUACGGCGU,-0.302 ± 0.083,0.212 ± 0.097
AACCAGCAAUAUUACGUGCU,-3.52 ± 0.16,-1.94 ± 0.15
UUAAAGCAAUAUUACGGCGG,0.463 ± 0.11,0.0127 ± 0.13
UACUAGCAAUAUUACGAAGU,-3.85 ± 0.42,-2.32 ± 0.41
GGCAAGCAAUAUUACGUAAG,-0.742 ± 0.072,-1 ± 0.1
CAAAAGCAAUAUUACGACAA,-1.85 ± 0.13,-1.64 ± 0.15
CGUCAGCAAUAUUACGGGAG,-2.36 ± 0.098,-0.946 ± 0.11
CGAUAGCAAUAUUACGUUGA,-2.74 ± 0.18,-1.3 ± 0.14
UAGGAGCAAUAUUACGUGAC,-3 ± 0.23,
GAUGAGCAAUAUUACGCCCG,-3 ± 0.36,-2.08 ± 0.43
UGAUAGCAAUAUUACGUGGA,-3.45 ± 0.3,-2.23 ± 0.2
AGAAAGCAAUAUUACGCCCG,-0.679 ± 0.19,-0.0334 ± 0.19
UACCAGCAAUAUUACGUUGC,-4.31 ± 0.32,-2.6 ± 0.25
GCAAAGCAAUAUUACGUCUA,-0.983 ± 0.13,-0.637 ± 0.11
ACGCAGCAAUAUUACGUGGA,-3.14 ± 0.14,-2.37 ± 0.14
UGGCAGCAAUAUUACGCUGG,-3.47 ± 0.33,-2.53 ± 0.29

Sequence,self-splicing fitness (ln) (30 °C),self-splicing fitness (ln) (37 °C)
AUCAAGCAAUAUUACGGUGA,-1.36 ± 0.096,-0.818 ± 0.1
ACGGAGCAAUAUUACGGGAU,-1.84 ± 0.14,-1.83 ± 0.2
GAUUAGCAAUAUUACGCCGA,-1.03 ± 0.42,
AGUGAGCAAUAUUACGCAUA,-4.2 ± 0.43,-2.56 ± 0.29
UGGCAGCAAUAUUACGCGCA,-0.259 ± 0.14,0.284 ± 0.15
GUUUAGCAAUAUUACGCAGU,-2.92 ± 0.17,-2.05 ± 0.22
CCCUAGCAAUAUUACGGUUG,-3.3 ± 0.14,-2.04 ± 0.11
CGCUAGCAAUAUUACGUAUU,-3.85 ± 0.21,-1.9 ± 0.18
AGGCAGCAAUAUUACGAGUA,-1.94 ± 0.15,-1.65 ± 0.14
AAGUAGCAAUAUUACGAUAC,-3.92 ± 0.28,-1.71 ± 0.25
CUUUAGCAAUAUUACGGUAA,-2.37 ± 0.23,-2.12 ± 0.26
CUGAAGCAAUAUUACGCUAC,-3.7 ± 0.47,
UUACAGCAAUAUUACGUCAG,-0.769 ± 0.067,-0.337 ± 0.09
UAUAAGCAAUAUUACGACUG,0.143 ± 0.076,0.22 ± 0.098
GACAAGCAAUAUUACGACCG,-0.672 ± 0.21,-0.326 ± 0.34
CCGGAGCAAUAUUACGACUG,-0.64 ± 0.14,-0.428 ± 0.22
CAAAAGCAAUAUUACGAGGA,-3.08 ± 0.19,-2.14 ± 0.15
AGCUAGCAAUAUUACGCUUG,-3.96 ± 0.26,-2.9 ± 0.25
CCCUAGCAAUAUUACGACUA,-2.51 ± 0.29,-2.21 ± 0.21
UAACAGCAAUAUUACGUGGC,-4.59 ± 0.29,-2.56 ± 0.23
AGUAAGCAAUAUUACGUCAA,-3.78 ± 0.21,-2 ± 0.15
UCUAAGCAAUAUUACGGCUU,-4.01 ± 0.37,-1.22 ± 0.26
GGCCAGCAAUAUUACGUGUU,-0.771 ± 0.055,-0.0103 ± 0.07
CCAGAGCAAUAUUACGACUU,-3.55 ± 0.17,-2.61 ± 0.23
CACCAGCAAUAUUACGGUGG,-2.71 ± 0.077,-1.59 ± 0.084

Sequence,self-splicing fitness (ln) (30 °C),self-splicing fitness (ln) (37 °C)
GUCGAGCAAUAUUACGCUGA,,-2.01 ± 0.43
UCACAGCAAUAUUACGGCGA,0.0998 ± 0.092,0.202 ± 0.094
AAGGAGCAAUAUUACGAUUU,-0.545 ± 0.12,0.0878 ± 0.15
AGUAAGCAAUAUUACGAAUC,-4.12 ± 0.42,-2.86 ± 0.34
ACCGAGCAAUAUUACGGCGG,-3.59 ± 0.3,-2.58 ± 0.39
CUAUAGCAAUAUUACGAUUC,-3.51 ± 0.26,-1.71 ± 0.21
AGCAAGCAAUAUUACGUAUA,-2.91 ± 0.15,-1.85 ± 0.15
AUGCAGCAAUAUUACGGAGA,-4.25 ± 0.44,-4.21 ± 0.34
GAACAGCAAUAUUACGACUG,-1.45 ± 0.085,0.155 ± 0.1
ACUGAGCAAUAUUACGAACG,-2.48 ± 0.17,-1.77 ± 0.21
CCCGAGCAAUAUUACGCGCA,-3.47 ± 0.34,-1.28 ± 0.3
UCUGAGCAAUAUUACGGGCC,-2.67 ± 0.35,
CCCAAGCAAUAUUACGAUGG,-2.89 ± 0.13,-1.99 ± 0.13
CGGCAGCAAUAUUACGGCGG,-1.26 ± 0.11,-0.79 ± 0.14
UGCUAGCAAUAUUACGGAAA,-2.19 ± 0.27,-2.19 ± 0.31
ACAAAGCAAUAUUACGUUAC,-4.4 ± 0.22,-2.42 ± 0.22
UGGAAGCAAUAUUACGUCUA,-0.281 ± 0.15,-0.741 ± 0.18
GGCAAGCAAUAUUACGGGAC,-2.46 ± 0.13,-0.918 ± 0.1
UAAUAGCAAUAUUACGUUAU,-2.86 ± 0.21,-1.44 ± 0.19
GCCGAGCAAUAUUACGUGCU,-3.92 ± 0.21,-2.08 ± 0.15
GCCCAGCAAUAUUACGGUAU,-0.47 ± 0.055,-0.0153 ± 0.068
CGGGAGCAAUAUUACGUUUG,-2.75 ± 0.17,-2.11 ± 0.19
UAACAGCAAUAUUACGGCCU,-1.21 ± 0.13,-0.33 ± 0.15
GUUCAGCAAUAUUACGGAGA,,-1.33 ± 0.29
UCGCAGCAAUAUUACGGGCU,-3.71 ± 0.17,-2.63 ± 0.16

Sequence,self-splicing fitness (ln) (30 °C),self-splicing fitness (ln) (37 °C)
CUGUAGCAAUAUUACGACUG,-0.156 ± 0.12,-0.0808 ± 0.17
AAAGAGCAAUAUUACGUAUU,-3.03 ± 0.2,-1.2 ± 0.14
ACCCAGCAAUAUUACGAAAU,-1.42 ± 0.07,-1.21 ± 0.083
CCAAAGCAAUAUUACGGGUA,-2.96 ± 0.24,-3.34 ± 0.43
CUAGAGCAAUAUUACGACAA,-2.53 ± 0.32,-1.84 ± 0.34
GGUUAGCAAUAUUACGGAAA,-1.53 ± 0.25,-1.76 ± 0.22
CUCUAGCAAUAUUACGACGG,-2.32 ± 0.18,-1.98 ± 0.29
GUUGAGCAAUAUUACGGAUA,-0.148 ± 0.24,-1.65 ± 0.45
GUUAAGCAAUAUUACGGUGC,-2.42 ± 0.1,-1.23 ± 0.12
CCUUAGCAAUAUUACGAGAU,-2.62 ± 0.26,-2.79 ± 0.21
CGCGAGCAAUAUUACGGCCU,-2.69 ± 0.26,-1.65 ± 0.22
UGCUAGCAAUAUUACGGAGA,,-2 ± 0.22
AGAUAGCAAUAUUACGCAUA,-2.23 ± 0.16,-0.55 ± 0.18
CGAGAGCAAUAUUACGCAAC,-1.2 ± 0.34,-2.34 ± 0.35
UUGCAGCAAUAUUACGGCCC,-1.83 ± 0.31,-0.271 ± 0.47
UCAGAGCAAUAUUACGGAAU,-2.94 ± 0.17,-2.22 ± 0.15
UUCAAGCAAUAUUACGACCA,-1.48 ± 0.31,-0.352 ± 0.21
GAUAAGCAAUAUUACGUCAC,,-1.86 ± 0.27
GCUCAGCAAUAUUACGGGUC,-3.6 ± 0.22,-2.91 ± 0.23
GGAUAGCAAUAUUACGCUCG,-0.451 ± 0.24,-0.208 ± 0.35
GCCAAGCAAUAUUACGUUAC,-2.55 ± 0.12,-2.39 ± 0.18
GUACAGCAAUAUUACGCUCG,-0.881 ± 0.13,-0.344 ± 0.14
